Results published in US6667388B2, “Peptide inhibitor of MMP activity and angiogenesis” (Beth Israel Deaconess Medical Center, priority 2001, dated 2003).

Key:
mouse TSP2-TSR = target: T1, mouse TSP2-TSR (Mus musculus, UniProt Q03350); assay: Yeast two-hybrid screen with TSP2-TSR as bait; assay type: binding; conditions: transactivation of reporter genes HIS3 and lacZ
T1 construct: The TSP-1 and TSP-2 TSR regions corresponded to nucleotides 1342-1861 and 1356-1876 of TSP-1 and TSP-2 respectively; expressed in transfected cells; host or cells: S. cerevisiae strain Y190 (bait vector pAS2-2)
T1 sequence (Q03350 381-552): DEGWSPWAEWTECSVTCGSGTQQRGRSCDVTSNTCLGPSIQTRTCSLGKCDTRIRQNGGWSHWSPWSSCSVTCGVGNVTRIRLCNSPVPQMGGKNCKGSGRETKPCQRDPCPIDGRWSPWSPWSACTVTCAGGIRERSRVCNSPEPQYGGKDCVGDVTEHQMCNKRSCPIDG
Description: Generally, the nomenclature and the laboratory procedures in recombinant DNA technology described here are well known to those skilled in the art and are commonly employed in the art. The peptide of SEQ ID NO:1 was isolated by the yeast two-hybrid system using the MATCHMAKER two-hybrid system from CLONTECH.
The S. cerevisiae strain Y190 (CLONTECH, CA) was used for cDNA library screening and for direct testing of protein—protein interactions. The cells were grown at 30° C. either in rich YPD media or minimal media with the appropriate amino-acid supplements. The minimal media were SD-Trp, in which tryptophan was omitted; SD-Leu, in which leucine was omitted; SD-Trp, Leu, in which both tryptophan and leucine were omitted, and SD-Trp, leu, His, in which tryptophan, leucne and histidine were lacking.
The constructs for use in the yeast two-hybrid system were based on the GAL4 two-hybrid system 2, which includes the cloning vectors pAS2-1 and pACT2 (CLONTECH, CA). […] A bait vector with a second reading frame, designated pAS2-2, was constructed by linearizing the pAS2-1 with NcoI and filling-in using T4 DNA polymerase. […]
During the screen, the interaction between the bait (TSP1-TSR or TSP2-TSR) and the prey (NIH3T3 translational library) were assessed by their ability to transactivate the reporter genes HIS3 and lacZ. […]

proMMP-9 = target: T2, proMMP-9 (Homo sapiens, UniProt P14780); assay: MMP enzymatic assay with [3H]-labeled gelatin substrate, basal activity of proMMP-9; assay type: biochemical; conditions: peptide tested as MBP fusion protein; proMMP9 preincubated at 37° C. for 2 hours with 10 or 100 ng, then [3H]-labeled substrate for 1 hour; FIG. 2
T2 construct: purchased CALBIOCHEM
T2 sequence (P14780 20-707 limits assumed): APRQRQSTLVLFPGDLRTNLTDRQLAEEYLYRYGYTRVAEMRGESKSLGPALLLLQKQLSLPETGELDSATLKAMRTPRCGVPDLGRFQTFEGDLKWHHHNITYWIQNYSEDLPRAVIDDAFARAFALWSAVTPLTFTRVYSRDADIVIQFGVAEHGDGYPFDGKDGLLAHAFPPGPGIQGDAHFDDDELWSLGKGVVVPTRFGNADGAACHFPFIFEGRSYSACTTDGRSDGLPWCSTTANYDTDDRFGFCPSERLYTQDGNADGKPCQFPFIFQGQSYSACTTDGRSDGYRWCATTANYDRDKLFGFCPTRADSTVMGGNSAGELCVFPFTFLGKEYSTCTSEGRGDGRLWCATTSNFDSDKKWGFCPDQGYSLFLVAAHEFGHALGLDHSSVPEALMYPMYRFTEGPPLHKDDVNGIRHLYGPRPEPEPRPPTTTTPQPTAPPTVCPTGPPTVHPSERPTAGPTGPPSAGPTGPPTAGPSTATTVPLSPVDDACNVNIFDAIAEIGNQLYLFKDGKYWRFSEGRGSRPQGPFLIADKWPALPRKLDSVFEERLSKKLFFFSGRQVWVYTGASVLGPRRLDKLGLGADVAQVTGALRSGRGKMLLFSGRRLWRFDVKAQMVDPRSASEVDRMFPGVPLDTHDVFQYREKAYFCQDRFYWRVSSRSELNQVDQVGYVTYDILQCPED
Description: FIG. 2: is a bar graph depicting the inhibitory effect of the peptide of the invention on MMP-9 activity in an in vitro assay. ProMMP9 was preincubated at 37° C. for 2 hours with 10 or 100 ng of recombinant MBP-peptide fusion protein (MBP-29) followed by addition of [^3H]-labeled substrate for 1 hour.
(§1) For expression of the peptide as a fusion protein for subsequent use in MMP-9 inhibition assays, the cDNA encoding the peptide in SEQ ID NO:2 was cloned into the prokaryotic expression vector pMAL.c2× (NEN). The peptide was expressed as a fusion with the maltose binding protein (MBP) in the bacterial strain, BL21-codon plus (STRATAGENE). The bacteria were transformed using any standard method known in the art and grown at 37° C., as recommended by the supplier. The bacterial culture was supplemented with IPTG (isopropyl B-D-thiogalacto pyranoside) to a final concentration of 0.3 mM and grown further. The fusion protein with MBP was subsequently extracted from the bacterial cells using purified amylose resin. ProMMP (CALBIOCHEM) was used for assessing functionality of the bacterially expressed MBP-fusion peptide.
(§2) The enzymatic assays were performed using [3H]-labeled gelatin substrate. […] The radioactivity in the TCA soluble fraction was determined by a β-scintillation counter which gives a measure of the enzymatic activity of MMP-9.

[1] = target: T3, proMMP-9 activated by MMP3 (Homo sapiens, UniProt P14780); assay: MMP enzymatic assay with [3H]-labeled gelatin substrate, proMMP-9 activated by MMP3; assay type: biochemical; conditions: peptide tested as MBP fusion protein; proMMP-9 activated with MBP-MMP3, incubated for 2 hours; FIG. 3
T3 construct: purchased CALBIOCHEM
T3 sequence (P14780 107-707 limits assumed): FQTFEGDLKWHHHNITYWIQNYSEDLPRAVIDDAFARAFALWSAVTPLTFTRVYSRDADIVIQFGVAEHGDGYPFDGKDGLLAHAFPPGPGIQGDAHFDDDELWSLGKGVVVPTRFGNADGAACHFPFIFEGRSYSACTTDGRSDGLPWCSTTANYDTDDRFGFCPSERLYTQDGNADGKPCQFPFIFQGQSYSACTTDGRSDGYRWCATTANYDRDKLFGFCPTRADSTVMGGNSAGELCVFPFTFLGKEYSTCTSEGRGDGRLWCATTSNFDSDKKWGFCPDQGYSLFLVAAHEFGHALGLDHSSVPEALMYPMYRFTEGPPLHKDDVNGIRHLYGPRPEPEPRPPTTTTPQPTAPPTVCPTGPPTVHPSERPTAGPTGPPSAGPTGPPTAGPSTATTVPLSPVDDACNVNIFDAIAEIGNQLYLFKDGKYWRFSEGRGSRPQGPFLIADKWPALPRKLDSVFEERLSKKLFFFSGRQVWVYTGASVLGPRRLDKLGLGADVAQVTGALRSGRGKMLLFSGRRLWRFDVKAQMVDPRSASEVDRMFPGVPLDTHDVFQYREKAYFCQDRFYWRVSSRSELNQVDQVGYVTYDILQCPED
Description: FIG. 3: is a bar graph depicting the inhibitory effect of the peptide of the invention on activated MMP-9 in an in vitro assay. ProMMP-9 activated with MBP-MMP3 was incubated for 2 hours with control protein or recombinant MBP-peptide fusion protein (MBP-29).
as §1, §2

Which results are given for “APWNCCPVSCCGNCCFFRAL QSCPQG (APWNCCPVSCCGNCCFFRALQSCPQG; OTHER INFORMATION: Peptide Inhibitor of MMP- 9 Activity and Angiogenesis) [peptide of SEQ ID NO:1]”?
interaction with TSP-2 (mouse TSP2-TSR): isolated as an interactor of TSP-2; inhibition of MMP-9 activity (basal activity of proMMP-9) (proMMP-9): inhibited MMP-9 activity in a dose-dependent manner; inhibition of MMP-3 dependent activation of MMP (activated MMP-9) [1]: inhibited in a dose-dependent manner
